# Fewer inactive variants are shown than the library holds.
# B1: TPR 5TU (parent)
# chain: GGAUCUUCUCGAUCUAACAAAAAAGACAAAUCUGCCACAAAGCUUGAGAGCAUCUUCGGAUGCAGAGGCGGCAGCCUUCGGUGGCGCGAUAGCGCCAACGUUCUCAACUAUGACACGCAAAACGCGUGCUCCGUUGAAUGGAGUUUAUCAUG
# Variants of: B1
# Experiment: polymerase ribozyme fitness, log enrichment relative to wild type (log ratio); higher = more active; in vitro selection for triplet polymerase activity
# Method in brief: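 Mutant libraries of each subunit of a heterodimeric triplet polymerase ribozyme were built by PCR and transcribed. Each library went through one round of in vitro selection in triplicate: annealing with biotinylated primer, partner subunit and triplets, frozen incubation at −7 °C, gel excision of extended constructs, streptavidin-bead capture and RT-PCR. Input and output libraries were Illumina-sequenced; only genotypes with ≥10 input reads and ≥1 read per output were kept. Fitness is log2(genotype enrichment/wild-type enrichment), using inverse-variance-weighted replicate averages.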
row,Variant,polymerase ribozyme fitness (log ratio)
1,A24C U31C G68U U78C C85U,≤ -4.2
2,A24U A91G A97G A115U,-4.19
3,G25C A52G U56A A60C G67A C99U C116U G133C U135A,≤ -4.2
4,A23U C93G,≤ -4.2
5,A23G G46A C87U C132G,≤ -4.2
6,A23C A24U U61C G83A G112U U127G,≤ -4.2
7,A23G A49C G65C G80U G86U C99A,≤ -4.2
8,A24G G70C C79U C95A C96G,≤ -4.2
9,A24G C27U U31A A47C U77C C85U U102C U144C,≤ -4.2
10,A24C U56A G86A A150G,≤ -4.2
11,A24C A66C G71C G84U,≤ -4.2
12,A23G C32G A52U C85A U102G U127G,≤ -4.2
13,A24G A28U U55A G140A,≤ -4.2
14,A23G C85A,-2.98
15,A24U C57U G62A,-0.097
16,A23U A30C C35A A106C,≤ -4.2
17,A22G U82A G83A C105U,0.185
18,A23C G50U C76U C79A C85U C99G,≤ -4.2
19,A23U C76A,-3.84
20,G25A C54A G58A G84A A120G G126U,-3.36
21,A24C A29G G46U C85U C129G C131A G141C,≤ -4.2
22,A22U A28U A37U G42C C54A C103A,≤ -4.2
23,G25C C99U,-3.13
24,A23G U127G,≤ -4.2

row,Variant,polymerase ribozyme fitness (log ratio)
1,A23G A40U C76U C87U A89G G133C,≤ -4.2
2,A22U G81A C125A,-0.142
3,A24U C93U A98G C132U A142G,-4.17
4,A24U C57G G92U A147U,-0.341
5,A24C U56C A64C C96U,≤ -4.2
6,A23C C35U G65A A66U C76A U78G,≤ -4.2
7,A23U C43U A73U C85A A97C C105G G140U,≤ -4.2
8,A24G C27G A30U G48C G92U,≤ -4.2
9,A24G A26U A39U U53A C57U G59A G68U G86A C99A A106U,-4.18
10,A23U A29U G50A C69G A89C G112C A120U A122U,≤ -4.2
11,A24G G71C G83C C87U C96U C149A,≤ -4.2
12,G25C C99U C114G C118U,≤ -4.2
13,A24U A39G U82A C95G U135A,-3.89
14,A23G G58U C87A A115U,≤ -4.2
15,A22U A26G C36A G42U C96G G128U C132G U144G,≤ -4.2
16,G25A C87G A98U,≤ -4.2
17,A22U C54U A107U U134C U145C,-4.02
18,A22U A98G,-0.232
19,A23G A41G U55A U90C C96G C99A,≤ -4.2
20,A22U A49G A60G G83U G84U,-3.24
21,A23C A26C A52U C63A C131U G141U U145C,≤ -4.2
22,A23U A28G C87U U145A,≤ -4.2
23,A24G A49C G92U A122C,≤ -4.2
24,A22U G152A,-2.39

row,Variant,polymerase ribozyme fitness (log ratio)
1,A22G U44A U53C G67C C99G G126A U134C,≤ -4.2
2,A22G U53A A66G C72G U90C U145G,≤ -4.2
3,A24C G71A U135C U146C U148A,≤ -4.2
4,A23G C103A,-3.88
5,A22U G84A,-0.556
6,G25C G42C C57U G70A C87A G143A,≤ -4.2
7,A24U A47C G48C C85G A91G,≤ -4.2
8,A23U G42A C51U G71A G94A U101G,≤ -4.2
9,A23G A29U G59A G94A,≤ -4.2
10,A24U G34C U56A G84A G133A,-3.92
11,A22G U55A G83U C129A,-3.65
12,A22U U55G C57U,0.196
13,A24U C96G G143U A147U,-3.7
14,A22U G68U G74A U78A G92A C125A G140U U145G,≤ -4.2
15,A22U G50C C54A C63G A106U A119G,-3.06
16,A24C C51U C54G G74U C85G A97U,-4.18
17,A23G G58A C87U A121C,-3.82
18,A22U A29U A39U U55A C79A C93G,≤ -4.2
19,A22U C54U G88C A106G U146A,≤ -4.2
20,A22U G34A U55A G59C C95A C118G,-3.53
21,A24U C27A G42C C75A U82G C96U C108A A138C,≤ -4.2
22,G25A C85A C95U,-2.49
23,A24G A120U,-3.9
24,A24U G25C A37U G65C U90A C116G C131A G141C,≤ -4.2

row,Variant,polymerase ribozyme fitness (log ratio)
1,A24C G141C,-3.54
2,A22U C85G,-1.73
3,A23C A110G U111A,≤ -4.2
4,A24G C38U,≤ -4.2
5,G25A A49G C95U,-2.94
6,A24C U31C U33G C76G C85U C125G,≤ -4.2
7,G25A A41U C43U C54U U55A G70A G92A G133U U139G,≤ -4.2
8,A24G G88U,≤ -4.2
9,A22G U53G C54G U55C A73G A91C C105U C116U U127G U135C,≤ -4.2
10,A23G G34U G141C,≤ -4.2
11,A23C C27U A47C C57A A73G A91G U101G U134A,≤ -4.2
12,A23U G42U G58C G65U C75G G141U,≤ -4.2
13,A22U A28U C38G C51U G83C,≤ -4.2
14,A23U G80A A150G,≤ -4.2
15,G25C A28C C32A A110G G126C,≤ -4.2
16,A22U A39C G59C G143A,-4.09
17,A22U C87A C99U C103G A142C,≤ -4.2
18,A23G U90G C93A A107U,≤ -4.2
19,A24C A39G,-3.42
20,A24C G59U A73G A150U,-3.13
21,A23C U56A G81A U90A C95G G143U,≤ -4.2
22,G25C A119C G136A,-3.75
23,G25C A28U C54U G83A C99U G124A,≤ -4.2
24,A22G U109G,-0.357

row,Variant,polymerase ribozyme fitness (log ratio)
1,A23U G74U A91U,≤ -4.2
2,A23G C54G G80C C105U C108U A113C C132G,≤ -4.2
3,A23G U134A,≤ -4.2
4,A23C G25C C32U A52C C85A,≤ -4.2
5,A24C C35U C87G A98U C103U C125G,≤ -4.2
6,G25U A26G C32G C85G A106G C129U G140C G143A,≤ -4.2
7,A23U U44G C76A C79U U82A G86A G143A,≤ -4.2
8,A24C A47C C57U A121U,≤ -4.2
9,A23G C27G A40G U61A C131G G143U,≤ -4.2
10,G25C A64U C125G,≤ -4.2
11,A23U C63A C114G,≤ -4.2
12,A23U A106G A138U,≤ -4.2
13,A24C G48A G84U A106U A142U,≤ -4.2
14,A22G G84U G88U A89U,≤ -4.2
15,A22U C105U G136C,-2.55
16,A22U U44A U45A A122G G140C G143U U146C,≤ -4.2
17,A24G U90C C123G G136C A147G,≤ -4.2
18,A24G A30G A52C U53G G59A C87U G92U G128A U139A,≤ -4.2
19,A23G C54G U56A A138U G140U U146C,≤ -4.2
20,A24U A26G C51U A64U A66C C69U C108A C123A,≤ -4.2
21,A24U A28C C76A U82A C99U C118U G141C,≤ -4.2
22,A24C G42C G50U A91U C103A U134A,≤ -4.2
23,A24U U61A C93U U101C,-3.93
24,A24G G83C,-3.62

row,Variant,polymerase ribozyme fitness (log ratio)
1,G25C G46A G50U G83A C95A A97G U127G,≤ -4.2
2,A24G U55A,-3.22
3,A23U G48A C87G U104C,≤ -4.2
4,G25C C54U C57U C75U G126A,-2.79
5,A24U G84C C114U G140U,≤ -4.2
6,A23G G59U C75G U90C C129A,≤ -4.2
7,A23C C85A G88A A120U U146G,≤ -4.2
8,A22U G50C C63U G71A G84A G117U A122U,-4
9,A23U C27U U33G G42U G86U U101A G152A,≤ -4.2
10,A24U U78C C87A,≤ -4.2
11,G25A C96G C99G G152U,≤ -4.2
12,A24G C27A G84U G86A C131A,≤ -4.2
13,A22U C43A C57G C93U C96U,≤ -4.2
14,A24G G25U C75G G80A C85G U130A A142C,≤ -4.2
15,A24C C79U,≤ -4.2
16,A24C A41U C54A,≤ -4.2
17,A22U U45A C57U G58A G59U C87A,≤ -4.2
18,A22U G83C G86U C108A C129U,≤ -4.2
19,A24U G42A U53A U90G A107U C108A U145C,≤ -4.2
20,A22U A52C U55A G67U,≤ -4.2
21,A22U C87G U104A C105A,≤ -4.2
22,A23G C76G C87U A119G G140U,≤ -4.2
23,A23C C54G A64G C125A U148C C149A A150U,≤ -4.2
24,A22U A28U A47C C72G G84U C149A,≤ -4.2

row,Variant,polymerase ribozyme fitness (log ratio)
1,A22U C57A G70C U78A G80A,≤ -4.2
2,A23C A37C U53A A64C U90C C96G U101G,≤ -4.2
3,A23U C51U C76A C96G C103G A115G,≤ -4.2
4,A24C C125U,≤ -4.2
5,A22U U55A U56A A97U,-0.631
6,A24C G34C C35A A122G U134A G143C,-4.11
7,G25C C57A G83A G86U C96G A106G U127G,≤ -4.2
8,A24U C36G U111C C116A,≤ -4.2
9,A22U A47U C51U C95A C99U,-1.72
10,G25C U33G G59A U78A G92C C99A G100U U134A,≤ -4.2
11,A23U U53A U55G C95U C103U C114U G126A G136U A150U,≤ -4.2
12,A23U A39G A91C,≤ -4.2
13,A24U U31C C38U U82A G84A,0.365
14,A23U A40U C51U U78G,≤ -4.2
15,A24C C38A U77A G84C A89U,≤ -4.2
16,A22U G124A,0.0485
17,A22U U53A,-1.05
18,A23C A40U G48U G94C C99G U144A,≤ -4.2
19,A22G U56A C85U,-0.116
20,A23C A30C A52C C95U U144A,≤ -4.2
21,A24C C87A A106G U135C,≤ -4.2
22,A24U A30C C38U U45A G92U,≤ -4.2
23,A22G G84U,-2.74

# Source: the RNAGym collection of RNA variant scans (doi:10.1073/pnas.2313332121)
